Source: article PMC11246235

Molecular target: CST (FLAG-Ctc1, Stn1, HA-Ten1) purified from HEK293T/17 cells (human) (UniProt Q2NKJ3)
Test: co-IP

stoichiometry of Polα/primase to CST: 20%
Substance: Polα/primase (endogenous), P09884 1-1462; Q14181 1-598; P49642 1-420; P49643 1-509
